B1: CAT-213 (antibody, V domains shown)
VH: QVQLVQSGGGVVQPGRSLRLSCAASGFTFSSYGMHWVRQAPGKGLEWVAVISYDGSIKHYADSVKGRFTISRDNSKNTLYLQMNSLRTDDTAVYYCAGDTDYGDIDPWGQGTMVTVSS
VL: DIQMTQSPSSVSASVGDRVTITCRASQDISSWLAWYQQKPGKAPKLLIYAASSLQSGVPSRFSGSGSGTDFTLTISSLQPEDFATYYCQQASSFPSITFGQGTRLEIKR
notes: Expressed in NS0 cells and purified on Protein A
B2: Mouse eotaxin (ligand, UniProt P48298 24-97, looked up)
chain: HPGSIPTSCCFIMTSKKIPNTLLKSYKRITNNRCTLKAIVFKTRLGKEICADPKKKWVQDATKHLDQKLQTPKP
notes: also called murine eotaxin

Columns and labels:
Human eotaxin [1] = target: T1, Human eotaxin (human, UniProt P51671 24-97, 125-iodine label in the Flash Plate assays; site not given); assay: Flash Plate scintillation competition: soluble CAT-213 against coated CAT-212 (competitor) for [125I]eotaxin; mean of 4 estimates
T1 construct: treated as one molecule; also called eotaxin-1
Experimental: The Flash Plate assay was performed essentially as described in Example 6.

Human eotaxin [2] = target: T1, Human eotaxin; assay: cell-based or functional assay
Mouse eotaxin = target: B2; assay: cell-based or functional assay
Rhesus monkey eotaxin = Rhesus monkey eotaxin (rhesus monkey, UniProt Q8MIT7 24-97, limits assumed); assay: cell-based or functional assay
CAT-212 = target: T2, CAT-212; assay: Flash Plate scintillation competition: unlabelled mouse eotaxin against [125I]eotaxin for coated CAT-212; mean of two estimates
T2 construct: Human scFv; IMAC-purified soluble scFv in the Western blot and Flash Plate assays; FPLC-purified monomeric scFv in the chemotaxis assay
Experimental: Flash Plate™ was prepared as described in Example 6. Eleven serial one in three dilutions of unlabelled human and mouse Eotaxin (R&D) in Assay Buffer and mixed with ¹²⁵I-Eotaxin prepared at an estimated concentration of 30 pM and 100 μl added to the wells in duplicate. The plate was sealed and incubated at room temperature for two hours, counted and the data processed as described in Example 6.

T1 sequence (P51671 24-97 limits assumed): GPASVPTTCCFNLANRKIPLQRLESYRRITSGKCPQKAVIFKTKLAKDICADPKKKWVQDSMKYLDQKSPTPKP
Chain of Rhesus monkey eotaxin (Q8MIT7 24-97 limits assumed): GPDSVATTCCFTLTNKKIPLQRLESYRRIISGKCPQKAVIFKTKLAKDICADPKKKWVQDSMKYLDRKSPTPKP

Binder	IC50 (Human eotaxin [1]) [nM]	IC50, inhibition of eotaxin-mediated chemotaxis of CCR3-transfected L1.2 cells (Human eotaxin [2]) [nM]	geometric mean IC50, inhibition of eotaxin-evoked shape change of human eosinophils (Human eotaxin [2]) [nM]	geometric mean IC50, inhibition of eotaxin-mediated chemotaxis of human eosinophils (Human eotaxin [2]) [nM]	geometric mean IC50, inhibition of mouse eotaxin-mediated chemotaxis of L1.2-CCR3 cells (Mouse eotaxin) [nM]	geometric mean IC50, inhibition of rhesus monkey eotaxin-mediated chemotaxis of L1.2-CCR3 cells (Rhesus monkey eotaxin) [nM]	IC50 (CAT-212) [nM]
B1	0.0593	0.7	0.714	1.53	2630	303	–
B2	–	–	–	–	–	–	296

— patent US20020098523A1 (CAMBRIDGE ANTIBODY TECHNOLOGY, published 2002)
